# B1: HpFT-3HR: H. pylori α-1,3-fucosyltransferase variant: catalytically active domain, three heptapeptide repeat sequences and C-terminus fused His tag (protein)
# chain: MFQPLLDAFIESASIEKMVSKSPPPPLKIAVANWWGDEEIKEFKKSVLYFILSQRYAITLHQNPNESSDLVFSNPLGAARKILSYQNTKRVFYTGENESPNFNLFDYAIGFDELDFNDRYLRMPLYYAHLHYEAELVNDTTAPYKLKDNSLYALKKPSHHFKENHPNLCAVVNDESDLLKRGFASFVASNANAPMRNAFYDALNSIEPVTGGGSVRNTLGYKVGNKSEFLSQYKFNLCFENSQGYGYVTEKILDAYFSHTIPIYWGSPSVAKDFNPKSFVNVHDFNNFDEAIDYIKYLHTHPNAYLDMLYENPLNTLDGKAYFYQDLSFKKILDFFKTILENDTIYHNNPFIFYRDLHEPLISIDDLRVNYDDLRVNYDDLRVNYLEHHHHHH
# modifications: Catalytically active domain of Helicobacter pylori Alpha-(1,3)-fucosyltransferase (GenBank No.AAD07710.1) with 3 heptapeptide repeats and a C-terminal His tag
# B2: HpFT-1HR: H. pylori α-1,3-fucosyltransferase variant: catalytically active domain, a heptapeptide repeat sequence and C-terminus fused His tag (protein)
# chain: MFQPLLDAFIESASIEKMVSKSPPPPLKIAVANWWGDEEIKEFKKSVLYFILSQRYAITLHQNPNESSDLVFSNPLGAARKILSYQNTKRVFYTGENESPNFNLFDYAIGFDELDFNDRYLRMPLYYAHLHYEAELVNDTTAPYKLKDNSLYALKKPSHHFKENHPNLCAVVNDESDLLKRGFASFVASNANAPMRNAFYDALNSIEPVTGGGSVRNTLGYKVGNKSEFLSQYKFNLCFENSQGYGYVTEKILDAYFSHTIPIYWGSPSVAKDFNPKSFVNVHDFNNFDEAIDYIKYLHTHPNAYLDMLYENPLNTLDGKAYFYQDLSFKKILDFFKTILENDTIYHNNPFIFYRDLHEPLISIDDLRVNYLEHHHHHH
# modifications: Catalytically active domain of Helicobacter pylori Alpha-(1,3)-fucosyltransferase (GenBank No.AAD07710.1) with 1 heptapeptide repeat and a C-terminal His tag
# B3: HpFT-0HR: HpFT variant: catalytically active domain and C-terminus fused His tag, no heptapeptide repeat (protein)
# chain: MFQPLLDAFIESASIEKMVSKSPPPPLKIAVANWWGDEEIKEFKKSVLYFILSQRYAITLHQNPNESSDLVFSNPLGAARKILSYQNTKRVFYTGENESPNFNLFDYAIGFDELDFNDRYLRMPLYYAHLHYEAELVNDTTAPYKLKDNSLYALKKPSHHFKENHPNLCAVVNDESDLLKRGFASFVASNANAPMRNAFYDALNSIEPVTGGGSVRNTLGYKVGNKSEFLSQYKFNLCFENSQGYGYVTEKILDAYFSHTIPIYWGSPSVAKDFNPKSFVNVHDFNNFDEAIDYIKYLHTHPNAYLDMLYENPLNTLDGKAYFYQDLSFKKILDFFKTILENDTIYHNNPFIFYRDLHEPLISILEHHHHHH
# modifications: Catalytically active domain of Helicobacter pylori Alpha-(1,3)-fucosyltransferase (GenBank No.AAD07710.1) with a C-terminal His tag
# B4: HpFT-6HR: HpFT variant: catalytically active domain, six heptapeptide repeat sequences and C-terminus fused His tag (protein)
# chain: MFQPLLDAFIESASIEKMVSKSPPPPLKIAVANWWGDEEIKEFKKSVLYFILSQRYAITLHQNPNESSDLVFSNPLGAARKILSYQNTKRVFYTGENESPNFNLFDYAIGFDELDFNDRYLRMPLYYAHLHYEAELVNDTTAPYKLKDNSLYALKKPSHHFKENHPNLCAVVNDESDLLKRGFASFVASNANAPMRNAFYDALNSIEPVTGGGSVRNTLGYKVGNKSEFLSQYKFNLCFENSQGYGYVTEKILDAYFSHTIPIYWGSPSVAKDFNPKSFVNVHDFNNFDEAIDYIKYLHTHPNAYLDMLYENPLNTLDGKAYFYQDLSFKKILDFFKTILENDTIYHNNPFIFYRDLHEPLISIDDLRVNYDDLRVNYDDLRVNYDDLRVNYDDLRVNYDDLRVNYLEHHHHHH
# modifications: Catalytically active domain of Helicobacter pylori Alpha-(1,3)-fucosyltransferase (GenBank No.AAD07710.1) with 6 heptapeptide repeats and a C-terminal His tag
# Key:
# Assay type in all cases: biochemical
# [1] = system: Trastuzumab-(Fucα1,6)(GalNAzβ1,4)GlcNAc; assay: Transfer of GDP-FAmP4Biotin to Trastuzumab-(Fucα1,6)(GalNAzβ1,4)GlcNAc by different HpFTs; settings: donor GDP-FAmP4Biotin 1 mM, enzyme 0.5 mg/mL, 30° C., 3 h; FIG. 3
# Trastuzumab-G2F = assay: Transfer of GDP-FAmP4Biotin to Trastuzumab-G2F by different HpFTs (% of conversion by MS); settings: donor GDP-FAmP4Biotin 1 mM, enzyme 0.5 mg/mL, 30° C., 3 h; FIG. 1
# Procedure: (§1) To 40 mM Tris-HCl (pH 7.5) buffer were added Trastuzumab-G2F (2 mg/mL final), GDP-FAmP4Biotin (1 mM final), MgCl2 (20 mM final), and different HpFT enzymes (HpFT-4HR, HpFT-4HR(M4), HpFT-4HR(M7), HpFT-6HR, HpFT-3HR, HpFT-2HR, HpFT-1HR, or HpFT-0HR) (0.5 mg/mL final) in sequence, and the resulting mixed solution was allowed to react at 30° C. for 3 h. Three parallels were set up for each group. After the reaction time point was reached, to the reaction solution was added 10 mM LacNAc (N-acetyl-D-lactosamine), and the reaction was terminated by a desalting column (Zeba™ Spin Desalting Columns/2 ml/40K, Thermo Fisher Scientific), and finally mass spectrometry was carried out and % of conversion was calculated. % of conversion=(MAR0 peak intensity*0+MAR1peak intensity*1+MAR2 peak intensity*2+MAR3 peak intensity*3+MAR4 peak intensity*4)/4* (MAR0 peak intensity+MAR1 peak intensity+MAR2 peak intensity+MAR3 peak intensity+MAR4 peak intensity)*100%.
# [2] = system: Trastuzumab-(Fucα1,6)(Galβ1,4)GlcNAc; assay: Transfer of GDP-FAmP4Biotin to Trastuzumab-(Fucα1,6)(Galβ1,4)GlcNAc by different HpFTs; settings: donor GDP-FAmP4Biotin 1 mM, enzyme 0.5 mg/mL, 30° C., 1 h; FIG. 2
# Procedure: as §1, with “added Trastuzumab-(Fucα1,6)(Galβ1,4)GlcNAc” for “added Trastuzumab-G2F”, “HpFT-2HR, HpFT-1HR” for “HpFT-2HR, HpFT-1HR,”, “for 1” for “for 3”, “mM LacNA,” for “mM LacNAc (N-acetyl-D-lactosamine),”, “peak intensity*2)/2*” for “peak intensity*2+MAR3 peak intensity*3+MAR4 peak intensity*4)/4*”, “peak” for “peak intensity+MAR3 peak intensity+MAR4 peak”
# [3] = system: Trastuzumab-(GalNAzβ1,4)GlcNAc; assay: Transfer of GDP-FAmP4Biotin to Trastuzumab-(GalNAzβ1,4)GlcNAc by different HpFTs; settings: donor GDP-FAmP4Biotin 1 mM, enzyme 0.5 mg/mL, 30° C., 3 h; FIG. 4
molecule,measurement,setting,value
B1,catalytic activity as compared with HpFT-4HR (% of conversion),[1],significantly improved catalytic activity
same,catalytic activity as compared with HpFT-4HR (% of conversion),Trastuzumab-G2F,significantly improved catalytic activity
same,catalytic activity as compared with HpFT-4HR (% of conversion),[2],significantly improved catalytic activity
same,catalytic activity as compared with HpFT-4HR (% of conversion),[3],significantly improved catalytic activity
B2,catalytic activity among the HpFT variants,[1],relatively high catalytic activity
same,catalytic activity as compared with HpFT-4HR (% of conversion),[1],significantly improved catalytic activity
same,catalytic activity as compared with HpFT-4HR (% of conversion),Trastuzumab-G2F,significantly improved catalytic activity
same,catalytic activity as compared with HpFT-4HR (% of conversion),[2],significantly improved catalytic activity
same,catalytic activity among the HpFT variants,[3],relatively high catalytic activity
same,catalytic activity as compared with HpFT-4HR (% of conversion),[3],significantly improved catalytic activity
B3,catalytic activity as compared with HpFT-4HR (% of conversion),[1],significantly decreased activity
same,catalytic activity as compared with HpFT-4HR (% of conversion),[2],significantly decreased activity
same,catalytic activity as compared with HpFT-4HR (% of conversion),[3],significantly decreased activity
B4,catalytic activity as compared with HpFT-4HR (% of conversion),[1],little activity change
same,catalytic activity as compared with HpFT-4HR (% of conversion),[2],no obvious activity change
same,catalytic activity as compared with HpFT-4HR (% of conversion),[3],little activity change
